Data set [1] has as its target T1, HERV-K reverse transcriptase (RT) (Human endogenous retrovirus K (Homo …, UniProt V9H0F6 1-596)).
T1 sequence: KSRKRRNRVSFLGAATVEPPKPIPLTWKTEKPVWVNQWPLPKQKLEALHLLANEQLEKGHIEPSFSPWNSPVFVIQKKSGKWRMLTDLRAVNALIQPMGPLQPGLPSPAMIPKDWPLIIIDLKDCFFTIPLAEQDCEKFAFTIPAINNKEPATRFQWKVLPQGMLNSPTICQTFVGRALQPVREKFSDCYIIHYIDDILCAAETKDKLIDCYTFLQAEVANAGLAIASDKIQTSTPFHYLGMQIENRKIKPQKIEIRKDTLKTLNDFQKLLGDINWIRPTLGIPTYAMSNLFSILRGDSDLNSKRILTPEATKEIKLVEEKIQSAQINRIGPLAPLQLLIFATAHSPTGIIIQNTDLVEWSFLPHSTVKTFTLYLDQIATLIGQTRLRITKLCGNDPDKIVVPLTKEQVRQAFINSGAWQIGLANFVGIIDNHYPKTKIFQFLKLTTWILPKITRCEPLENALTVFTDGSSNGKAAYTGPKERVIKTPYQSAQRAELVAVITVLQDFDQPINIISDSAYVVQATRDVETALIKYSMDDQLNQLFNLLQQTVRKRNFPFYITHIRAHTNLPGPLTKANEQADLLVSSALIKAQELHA
As to the kind of experiment: X-ray crystallography.

The target in data set [2] is T1, HERV-K reverse transcriptase (RT). Kind of data set: X-ray crystallography. The source holds these as a separate data set.

The source of these data is PMC9271190.

Like-named read-outs stand apart in the source and are kept apart here.

B1: U5-PBS DNA template/primer extended by ddT (dsDNA)
DNA 1: GGGACCTGAAAGCGAAAGGGAAAC
DNA 2: GTTTCCCTTTCGCTTTCAGGT
modifications: primer 3'-terminal 2',3'-dideoxy-T (incorporated from ddTTP)
B1: in data set [1], the binding result is listed as “binds”.

B2: U5-PBS DNA template/primer, unextended (primer ends in G) (dsDNA)
DNA 1: GGGACCTGAAAGCGAAAGGGAAAC
DNA 2: GTTTCCCTTTCGCTTTCAGG
As for B2, the binding result in data set [2] is listed as “binds”.
